Laboratory results: patent US20220041711A1 (NGM BIOPHARMACEUTICALS, published 2022)
Like-named read-outs stand apart in the source and are kept apart here.

Key:
human LAIR-1-ECD = target: T1, human LAIR-1-ECD (human, UniProt Q6GTX8 22-165); assay: SPR (Biacore) as in Example 2
T1 construct: Recombinant, expressed in mammalian cells; also called extracellular region of human LAIR-1
T1 chain: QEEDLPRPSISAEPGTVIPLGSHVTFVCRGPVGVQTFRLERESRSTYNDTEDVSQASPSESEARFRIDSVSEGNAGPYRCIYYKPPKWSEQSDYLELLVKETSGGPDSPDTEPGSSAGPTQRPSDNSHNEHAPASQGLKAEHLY

cyno LAIR-1-ECD = target: T2, cyno LAIR-1-ECD (cynomolgus monkey); assay: SPR (Biacore) as in Example 2
T2 construct: Recombinant, expressed in mammalian cells; also called extracellular region of cyno LAIR-1
T2 chain: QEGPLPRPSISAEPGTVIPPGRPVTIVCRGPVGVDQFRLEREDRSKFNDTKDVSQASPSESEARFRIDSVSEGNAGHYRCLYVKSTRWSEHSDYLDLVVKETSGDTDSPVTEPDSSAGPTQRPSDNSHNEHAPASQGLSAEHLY

[1] = target: T3, human LAIR-1-CD3ζ chimeric receptor on NFAT-GFP reporter cells (human, UniProt P20963 31-164, limits assumed); assay: cell-based or functional assay
[2] = target: T3, human LAIR-1-CD3ζ chimeric receptor on …; assay: cell-based or functional assay; remark: listed apart in the source
[3] = target: T3, human LAIR-1-CD3ζ chimeric receptor on …; assay: cell-based or functional assay; remark: listed apart in the source
[4] = target: T4, cyno LAIR-1-CD3ζ chimeric receptor on NFAT-GFP reporter cells (cynomolgus monkey; human); assay: cell-based or functional assay
[5] = target: T3, human LAIR-1-CD3ζ chimeric receptor on …; assay: cell-based or functional assay; remark: listed apart in the source
[6] = target: T4, cyno LAIR-1-CD3ζ chimeric receptor on …; assay: cell-based or functional assay; remark: listed apart in the source
[7] = target: T3, human LAIR-1-CD3ζ chimeric receptor on …; assay: cell-based or functional assay; remark: listed apart in the source
[8] = target: T4, cyno LAIR-1-CD3ζ chimeric receptor on …; assay: cell-based or functional assay; remark: listed apart in the source
[9] = target: T5, human LAIR-1, endogenous on human cells (human, UniProt Q6GTX8 22-287); assay: flow cytometry of human PBMCs (9 donors) with Alexa Fluor 488-labelled ch47H1
T5 construct: Native receptor of primary human cells and of the THP1 line; isoform on the cells not determined; also called LAIR-1 on PBMC subsets, THP1 cells, monocyte-derived dendritic cells, macrophages and T-cells
T5 chain: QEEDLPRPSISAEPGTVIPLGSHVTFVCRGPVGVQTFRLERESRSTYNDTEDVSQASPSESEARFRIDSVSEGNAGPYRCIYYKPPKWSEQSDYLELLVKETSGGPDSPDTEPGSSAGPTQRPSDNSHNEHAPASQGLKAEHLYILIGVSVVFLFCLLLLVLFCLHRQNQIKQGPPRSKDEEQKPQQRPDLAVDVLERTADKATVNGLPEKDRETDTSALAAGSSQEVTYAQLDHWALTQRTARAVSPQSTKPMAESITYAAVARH

[10] = target: T3, human LAIR-1-CD3ζ chimeric receptor on …; assay: flow cytometry on human LAIR-1 reporter cells, PE anti-human Fc secondary, MFI (panel Human LAIR1 Cells)
[11] = target: T4, cyno LAIR-1-CD3ζ chimeric receptor on …; assay: flow cytometry on cyno LAIR-1 reporter cells, PE anti-human Fc secondary, MFI (panel Cynomolgus Monkey LAIR1 Cells)
[12] = target: T6, human LAIR-1b (alternative isoform of human LAIR-1) on transfected 293T cells (human, UniProt Q6GTX8 22-287); assay: flow cytometry on cells expressing human LAIR-1b, PE anti-human Fc secondary, MFI (panel Human LAIR1 (Truncated) Cells)
T6 chain: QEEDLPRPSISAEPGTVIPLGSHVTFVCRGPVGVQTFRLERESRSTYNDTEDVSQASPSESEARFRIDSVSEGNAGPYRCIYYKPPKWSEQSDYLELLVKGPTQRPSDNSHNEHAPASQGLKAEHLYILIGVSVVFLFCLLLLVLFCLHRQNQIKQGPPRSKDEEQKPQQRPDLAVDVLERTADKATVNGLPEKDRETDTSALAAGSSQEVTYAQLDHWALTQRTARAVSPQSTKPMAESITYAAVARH

human LAIR-1-Fc = target: T7, human LAIR-1-Fc (human, UniProt Q6GTX8 22-165); assay: ELISA blocking: plate coated with 5 µg/mL human collagen type 1, antibody titrated, 1 µg/mL biotinylated human LAIR-1-Fc, streptavidin-HRP, OD650
T7 construct: also called biotinylated human LAIR-1-Fc; not shown: a Fc region
T7 chain: T1 chain

[13] = target: T8, mouse LAIR-1-PILRβ chimeric receptor on GFP reporter cells (mouse); assay: cell-based or functional assay
[14] = target: T8, mouse LAIR-1-PILRβ chimeric receptor on …; assay: cell-based or functional assay; remark: listed apart in the source
[15] = target: T9, mouse LAIR-1-hFc (Sino Biological) (mouse, UniProt Q8BG84 22-144, limits assumed); assay: ELISA blocking: plate coated with 2 µg/mL mouse collagen type 1, antibody pre-incubated with 2 µg/mL mouse LAIR-1-hFc, HRP anti-human Fc, OD650 (left panel)
T9 construct: Bought; also called mouse LAIR-1-Fc; not shown: human Fc (hFc)
T9 sequence: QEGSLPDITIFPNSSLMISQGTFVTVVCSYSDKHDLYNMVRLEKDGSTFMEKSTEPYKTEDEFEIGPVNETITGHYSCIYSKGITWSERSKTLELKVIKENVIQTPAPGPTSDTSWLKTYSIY

[16] = target: T9, mouse LAIR-1-hFc (Sino Biological); assay: flow cytometry blocking: antibody pre-incubated with 2 µg/mL mouse LAIR-1-hFc, added to HEK-293T cells transfected with mouse MARCO, Alexa Fluor 647 anti-human Fc, MFI (right panel)

B1: anti-LAIR-1 antibody ch47H1 (antibody, V domains shown)
VH: EVQLVETGGGLVQPKGSLKLSCAASGFTFNINAMNWVRQAPGKGLEWVARIRTKNNNYATFYADSVKDRFTISRDDSQSMLYLQMNNLKTDDTAMYYCVRDRAGFFAYWGQGTPVTVSA
VL: DIQMTQSPASQSASLGESVTITCLASQTIGTWLGWYRQKPGKSPQLLIYAATSLADGVPSRFSGSGSGTKFSFKISSLQAEDFVIYYCQQLYSTPLTFGSGTKLEIK
notes: The prefix 'ch' is not defined; detected with anti-human Fc secondary antibody
Kd (human LAIR-1-ECD): 340 pM | koff (human LAIR-1-ECD): 0.00051 s⁻¹ | kon (human LAIR-1-ECD): 1.5e+06 M⁻¹ s⁻¹ | Kd (cyno LAIR-1-ECD): 4600 pM | koff (cyno LAIR-1-ECD): 0.001 s⁻¹ | kon (cyno LAIR-1-ECD): 220000 M⁻¹ s⁻¹ | IC50 (read off the curve): % GFP+ human LAIR-1 reporter cells on coated MARCO-his [1]: ~70 pM | IC50 (read off the curve): % GFP+ human LAIR-1 reporter cells on coated collagen 1 [1]: ~90 pM | IC50 (read off the curve): % GFP+ human LAIR-1 reporter cells on coated collagen 4 [1]: ~60 pM | IC50 (read off the curve): % GFP+ human LAIR-1 reporter cells on coated C1 complex [2]: ~20 pM | IC50 (read off the curve): % GFP+ human LAIR-1 reporter cells on coated COLEC12 [2]: ~50 pM | IC50 (read off the curve): % GFP+ human LAIR-1 reporter cells on coated MARCO-his [2]: ~30 pM | IC50 (read off the curve): % GFP+ human LAIR-1 reporter cells on coated MBL [2]: ~60 pM | IC50 (read off the curve): % GFP+ human LAIR-1 reporter cells on coated SP-D [2]: ~30 pM | IC50 (read off the curve): % GFP+ human LAIR-1 reporter cells on coated collagen 1 [2]: ~20 pM | IC50 (read off the curve): % GFP+ human LAIR-1 reporter cells on coated collagen 4 [2]: ~20 pM | IC50 (read off the curve): % GFP+ human LAIR-1 reporter cells on coated MARCO-his [3]: ~20 pM | IC50 (read off the curve): % GFP+ human LAIR-1 reporter cells on coated collagen 1 [3]: ~20 pM | IC50 (read off the curve): % GFP+ human LAIR-1 reporter cells on coated collagen 4 [3]: ~20 pM | IC50 (read off the curve): % GFP+ cyno LAIR-1 reporter cells on coated MARCO-his [4]: ~100 pM | IC50 (read off the curve): % GFP+ cyno LAIR-1 reporter cells on coated collagen 1 [4]: ~200 pM | IC50 (read off the curve): % GFP+ cyno LAIR-1 reporter cells on coated collagen 4 [4]: ~200 pM | IC50 (read off the curve): % GFP+ human LAIR-1 reporter cells co-cultured with bEnd.3 cells [5]: ~20 pM | IC50 (read off the curve): % GFP+ cyno LAIR-1 reporter cells co-cultured with bEnd.3 cells [6]: ~100 pM | IC50 (read off the curve): % GFP+ human LAIR-1 reporter cells on polymerized collagen matrix [7]: ~30 pM | IC50 (read off the curve): % GFP+ cyno LAIR-1 reporter cells on polymerized collagen matrix [8]: ~200 pM | binding result [9]: binds | EC50 (read off the curve) [10]: ~200 pM | EC50 (read off the curve) [11]: ~700 pM | EC50 (read off the curve) [12]: ~1000 pM | IC50 (read off the curve) (human LAIR-1-Fc): ~3000 pM

B2: anti-mouse LAIR-1 antibody 43H2 (antibody, V domains shown)
VH: EVQLVESGGGLVQPGRSLKVSCAASGFTFSNYGIHWIRQAPTKGLEWVASISPSGRSTYFRDSVKGRFTISRDNAKNTLYLQLDSLRSEDTATYYCATGINYSSFDYWGQGVMVTVSS
VL: DIVMTQSPTSMSISVGDRVTMNCKASQNVGSHVDWYQQKTGQSPKLLISTASNRYTGVPDRFTGSGSGTDFTFTINNMQTEDLAVYYCMQSNSYPPTFGGGTKLELK
notes: Raised in rats
IC50 (read off the curve): % GFP+ mouse LAIR-1 reporter cells on coated human MARCO-his [13]: ~100 pM | IC50 (read off the curve): % GFP+ mouse LAIR-1 reporter cells on coated mouse collagen type 1 [13]: ~40 pM | IC50 (read off the curve): % GFP+ mouse LAIR-1 reporter cells on coated mouse collagen type 4 [13]: ~20 pM | IC50 (read off the curve): % GFP+ mouse LAIR-1 reporter cells co-cultured with bEnd.3 cells [14]: ~20 pM | IC50 (read off the curve) [15]: ~80000 pM | IC50 (read off the curve) [16]: ~20000 pM
